Among the data in paper PMC5641629 are Kd, koff and kon values, retold here.

The Kd is the concentration at which binding is half-saturated. As usually defined, the koff is the first-order rate constant of dissociation. A lower koff goes with slow dissociation. Usually kon stands for a measure of how fast the partners come together. Read a low kon as slow association.

This assay concerns the target penicillin binding protein 2a (PBP2a) lacking the N-terminal 40 amino acid membrane-spanning domain (Staphylococcus aureus (MRSA)). Description: SPR. (In general: SPR reads the build-up and loss of mass on a sensor chip optically.)
In turn, “BLIP-II D52A (from UniProt O87916 1-311) (natural protein)” registered a Kd of 1800 nM, a koff of 0.00061 s⁻¹ and an on-rate (kon) of 354 M⁻¹ s⁻¹.
In turn, “BLIP-II E268A (from UniProt O87916 1-311) (natural protein)” had a dissociation constant Kd of 4700 nM and a kon of 424 M⁻¹ s⁻¹.
With “BLIP-II F209A (from UniProt O87916 1-311) (natural protein)”, the Kd turned out to be 6000 nM, the koff came out at 0.00078 s⁻¹ and the on-rate constant (kon) turned out to be 137 M⁻¹ s⁻¹.
For “BLIP-II I229A (from UniProt O87916 1-311) (natural protein)”, the Kd came out at 3400 nM, the koff is 0.00115 s⁻¹ and the on-rate (kon) is 339 M⁻¹ s⁻¹.
For “BLIP-II L91A (from UniProt O87916 1-311) (natural protein)” the same measures were 4000 nM, 0.00066 s⁻¹ and 168 M⁻¹ s⁻¹.
For “BLIP-II N50A (from UniProt O87916 1-311) (natural protein)”, the equilibrium dissociation constant (Kd) came out at 450 nM, the dissociation rate constant (koff) is 0.000719 s⁻¹ and the kon came to 1540 M⁻¹ s⁻¹.
For “BLIP-II N51A (from UniProt O87916 1-311) (natural protein)” the same measures were 700 nM, 0.00086 s⁻¹ and 1270 M⁻¹ s⁻¹.
On to “BLIP-II N112A (from UniProt O87916 1-311) (natural protein)”, for which the Kd worked out at 1200 nM, the koff came out at 0.0014 s⁻¹ and the kon was determined as 1190 M⁻¹ s⁻¹.
Substance “BLIP-II S169A (from UniProt O87916 1-311) (natural protein)” yielded a dissociation constant Kd of 1400 nM, a dissociation rate constant (koff) of 0.00074 s⁻¹ and a kon of 504 M⁻¹ s⁻¹.
The matching figures for “BLIP-II T57A (from UniProt O87916 1-311) (natural protein)”: 600 nM, 0.00095 s⁻¹ and 1750 M⁻¹ s⁻¹.
“BLIP-II W152A (from UniProt O87916 1-311) (natural protein)” gave a koff of 0.0012 s⁻¹ and a kon of 185 M⁻¹ s⁻¹.
The substance “BLIP-II W269A (from UniProt O87916 1-311) (natural protein)” registered a dissociation constant (Kd) of 3100 nM, a koff of 0.00116 s⁻¹ and a kon of 375 M⁻¹ s⁻¹.
With “BLIP-II Y73A (from UniProt O87916 1-311) (natural protein)”, the Kd was determined as 1200 nM, the off-rate (koff) was 0.00119 s⁻¹ and the kon was determined as 961 M⁻¹ s⁻¹.
In the case of “BLIP-II Y113A (from UniProt O87916 1-311) (natural protein)”, the Kd was 4000 nM and the on-rate (kon) turned out to be 217 M⁻¹ s⁻¹.
“BLIP-II Y248A (from UniProt O87916 1-311) (natural protein)” registered a koff of 0.00086 s⁻¹ and a kon of 114 M⁻¹ s⁻¹.
